What is called koff is a measure of how fast the partners let go of each other. The low end stands for slow dissociation, the high end for fast dissociation. What is called kon is a measure of how fast the partners come together. A word on the Kd: it is the equilibrium constant for the complex coming apart.

Test [1] has as its target T1, Clec12A-His protein, Clec12A (H65-A265-WT-EOm-NIgKss-6His) (human, UniProt Q5QGZ9 65-265).
T1 construct: The protein was biotinylated for the ELISA binning assay; also called soluble Clec12A-His; soluble Clec12A
T1 sequence: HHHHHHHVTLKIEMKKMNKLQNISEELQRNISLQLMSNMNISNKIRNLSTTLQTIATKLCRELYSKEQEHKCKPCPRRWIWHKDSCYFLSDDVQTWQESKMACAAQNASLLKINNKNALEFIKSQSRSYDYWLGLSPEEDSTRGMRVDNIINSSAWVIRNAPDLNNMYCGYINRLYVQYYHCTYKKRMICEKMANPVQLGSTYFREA
As to the kind of experiment: Biacore SPR; antibody captured on anti-mouse IgG chip, soluble Clec12A-His at 100 nM in solution. As to the method: (§1) Briefly, […] anti-Clec12A antibodies derived from and produced in hybridoma were tested for their binding affinity on soluble Clec12A in a Biacore SPR system. Briefly, the antibodies were immobilized on anti-mouse IgG sensor chips and bound to soluble Clec12A-His protein (Clec12A extracellular domains fused to 6×His tag (SEQ ID NO: 79)) at 100 nM in the solution phase. The resulting Biacore traces are as shown in […]

Test [2] deals with T1, Clec12A-His protein, Clec12A …. Kind of test: Biacore SPR; antibody captured on anti-mouse IgG chip, soluble Clec12A-His at 100 nM in solution; monovalent. As to the method:
as §1
On the technique in general: SPR reads the build-up and loss of mass on a sensor chip optically.

B1: anti-Clec12A antibody A (antibody, V domains shown)
VH: QVQLQESGPGLVKPSETLSLTCTVSGGSISTYYWSWIRQPPGKGLEWIGYIYYSGSTKYNPSLKSRVTISVDTSKNLFSLKLSSVTAADTAVYYCAREDYYGSGSPFDYWGQGTLVTVSS
VL: IQMTQSPSSLSASVGDRVTITCRASQGIRYDLGWYQQKPGKAPKLLIYAASSLQSGVPSRFSGSGSGTDFTLTISSLQPEDFATYYCLQDYNFPRTFGQGTKVEIK
notes: Described as a human anti-Clec12A antibody derived from and produced in hybridoma, captured on anti-mouse IgG sensor chips; also called Clone A
As for B1, in test [1], the koff is 0.0132 s⁻¹ and the kon stood at 4.62e+06 M⁻¹ s⁻¹. Moreover, the Kd in test [2] turned out to be 2.87 nM.

B2: anti-Clec12A antibody D (antibody, V domains shown)
VH: QLQLQESGPGLVKPSETLSLTCTVSGGSISSSTYYWGWIRQPPRKGLEWIGSTHYRGSTYYNPSLKSRVTISVDTSKNQFSLKVSSVTAADTAVYYCARELTGEVFDYWGQGTLVTVSS
VL: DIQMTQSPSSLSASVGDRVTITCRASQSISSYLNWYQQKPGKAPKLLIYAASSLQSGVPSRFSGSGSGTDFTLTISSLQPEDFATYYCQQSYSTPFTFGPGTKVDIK
notes: Hybridoma-produced IgG; also called Clone D; anti-Clec12A Clone D antibody
Take B2: the dissociation constant Kd in test [2] was 1.99 nM. In other words, the single-digit nanomolar range.

B3: anti-Clec12A antibody B (antibody, V domains shown)
VH: QVQLVESGGGVVQPGRSLRLSCAASGFTFSSYGMHWVRQAPGKGLEWVAVISYDGSDKYYVDSVKGRFTISRDNSKNTLYLHMNSLRAEDTAVYYCARDKGYYFDYWGQGTLVTVSS
VL: EIVMTQSPATLSLSPGERATLSCRASQSVGNRYLSWYQQKPGQAPRLLIYGASTRATGIPARFSGSGSGTDFTLTISSLQPEDFAVYYCQQDYNLPLTFGGGTKVEIK
notes: Hybridoma-produced IgG; also called Clone B
In test [1], B3 had a koff of 0.000666 s⁻¹ and a kon of 176000 M⁻¹ s⁻¹. In test [2], binding was characterised by a dissociation constant (Kd) of 3.78 nM.

B4: anti-Clec12A antibody C (antibody, V domains shown)
VH: QVQLVESGGGVVQPGRSLRLSCAASGFTFSSYGMHWVRQAPGKGLEWVAVISYDGSDKYSADSVKGRFNISRDNSKNTLYLQMNSLRAEDTAVYYCARDGSRYFDYWGQGTLVTVSS
VL: EIFMTQSPATLSLSPGERATLSCRASQSVHSKYLSWYQQKPGQAPSLLIYGASTRATGIPARFSGSGSGTDFTLTISSLQPEDFAVYYCQQDYNLPITFGQGTRLEIK
notes: Hybridoma-produced IgG; also called Clone C
In test [1], B4 registered a koff of less than 1e-05 s⁻¹ and a kon of 182000 M⁻¹ s⁻¹. The dissociation constant (Kd) in test [2] was less than 0.0549 nM.

For the origin of these results see patent publication US20230111279A1 (Takeda / Millennium, published 2023).
